B1: GST-SERCA-CD3 (other)
chain: GTRRMAKKNAIVRSLPSVETLGCTSVICSDKTGTLTTNQMSVCRMFILDKVEGDTCSLNEFTITGSTYAPIGEVQKDDKPVKCHQYDGLVELATICALCNDSALDYNEAKGVYEKVGEATETALTCLVEKMNVFDTELKGLSKIERANACNSVIKQLMKKEFTLEFSRDRKSMSVYCTPNKPSRTSMSKMFVKGAPEGVIDRCTHIRVGSTKVPMTPGVKQKIMSVIREWGSGSDTLRCLALATHDNPLRREEMHLEDSANFIKYETNLTFVGCVGMLDPPRIEVASSVKLCRQAGIRVIMITGDNKGTAVAICRRIGIFGQDEDVTSKAFTGREFDELSPSAQRDACLNARCFARVEPSHKSKIVEFLQSFDEITAMTGDGVNDAPALKKSEIGIAMGSGTAVAKTASEMVLADDNFSTIVAAVEEGRAIYNNMKQFIRYLISSNV
notes: also called GST-CD3 from rat heart sarcoplasmic reticulum Ca2+-ATPase 2a
B2: GST-KD1 of Src (other)
chain: LRLEVKLGQGCFGEVWMGTWNGTTRVAIKTLKPGTMSPEAFLQEAQVMKKLRHE
notes: also called GST-tagged Src truncation; not shown: glutathione S-transferase (GST) fusion tag

Columns and labels:
[1] = target: T1, Src of LLC-PK1 cells (endogenous) (pig, UniProt K7GM45 2-548); test: GST pulldown from cell lysates, Western blot
T1 construct: Species from the cell line (pig kidney proximal LLC-PK1); also called Src from the LLC-PK1 cell lysates; Src in TCN23-19 and PY-17 cells (clones of LLC-PK1)

[2] = target: purified pig kidney Na+/K+-ATPase (PKE) (pig, UniProt P05024 6-1021; P05027 1-303); test: in vitro binding assay with GST-tagged Src truncations and purified Na+/K+-ATPase

Binder	binding result [1]	binding result [2]
B1	no binding (tested: 1 mg LLC-PK1 cell lysates)	
B2		binds

Source: patent US20130150294A1 (UNIVERSITY OF TOLEDO, published 2013)
